Target: murine RAGE-Fc (mouse) (UniProt Q62151)
Test: method not given

Chain of murine RAGE-Fc (mouse) (Q62151 other isoform, or with tags, fused parts or gaps, form in doubt): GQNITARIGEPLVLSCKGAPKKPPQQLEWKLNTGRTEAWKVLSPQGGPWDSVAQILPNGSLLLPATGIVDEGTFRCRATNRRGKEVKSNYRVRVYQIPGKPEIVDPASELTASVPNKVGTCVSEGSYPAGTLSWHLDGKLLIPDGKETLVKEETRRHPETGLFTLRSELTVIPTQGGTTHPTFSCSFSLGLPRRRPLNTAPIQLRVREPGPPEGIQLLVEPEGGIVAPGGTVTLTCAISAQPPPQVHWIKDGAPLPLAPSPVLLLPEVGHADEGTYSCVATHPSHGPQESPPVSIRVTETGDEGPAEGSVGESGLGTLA

Kd: 0.3 nM
B1: XT-M4 (antibody, rat IgG2b, V domains shown)
VH: EVQLVESGGGLVQPGRSLKLSCVVSGFTFNNYWMTWIRQTPGKGLEWVASINNSGDNTYYPDSVKDRFTISRDNAKSTLYLQMNSLRSEDTATYYCTRGGDITTGFDYWGQGVMVTVSS
VL: DIQMTQSPSSMSVSLGDTITITCRASQDVGIYVNWFQQKPGKSPRRMIYRATNLADGVPSRFSGSRSGSIYSLTISSLESEDVADYHCLEFDEHPLTFGSGTKVEIK
